This note sets out measurements from article PMC3877065, “Ligand Recognition by the TPR Domain of the Import Factor Toc64 from Arabidopsis thaliana” (PLoS ONE, 2013).

First the molecules themselves.
B1: C-terminal octapeptide of Hsp90 (TSRMEEVD) [not stated] / TPR domain of AtToc64 with a C-terminal hexa-histidine tag (AtToc64_TPR-H6) [Arabidopsis thaliana] (parent complex)
chain 1: TSRMEEVD
chain 2: AEIAKEKGNQAFKEKLWQKAIGLYSEAIKLSDNNATYYSNRAAAYLELGGFLQAEEDCTKAITLDKKNVKAYLRRGTAREMLGDCKGAIEDFRYALVLEPNNKRASLSAERLRKFQ
B2: C-terminal octapeptide of Hsp70 (GPTIEEVD) [not stated] / TPR domain of AtToc64 with a C-terminal hexa-histidine tag (AtToc64_TPR-H6) [Arabidopsis thaliana] (parent complex)
chain 1: GPTIEEVD
chain 2: B1 chain 2

In the first assay the parent is B1. Nature of the assay: ITC; parent: 2.18e+05 nM.
On to chain 1 D8A, for which the dissociation constant Kd – broadly, a measure of binding affinity in units of concentration – is 1.4 mM. With chain 1 M4A, the Kd is 1.08 mM. Regarding chain 1 E6A, the Kd was found to be 1.9 mM.

Another assay covers variants of B2. Nature of the assay: ITC; parent: 2.3e+05 nM. On the technique in general: Isothermal titration calorimetry measures the heat released or taken up as one component is titrated into another.
Regarding chain 1 I4A, the Kd came out at 4.6 mM.
